Data reported in patent US20250043302A1, “MUTATED HYDROXYPHENYLPYRUVATE DIOXYGENASE POLYPEPTIDE, AND CODING GENE AND USE THEREOF” (BEIJING DABEINONG BIOTECHNOLOGY CO., LTD., priority 2021, published 2025).

How the values were obtained:
Format in all cases: in vivo
[1] = system: Arabidopsis thaliana T1 plants; experiment: Mesotrione tolerance of transgenic Arabidopsis thaliana T1 plants (spray, bleached leaf area grade, damage score); set-up: Scores: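 damage score 0-100 computed as Σ(N×S)/(T×M)×100 over grades 0-3 with higher meaning more damage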; conditions: Arabidopsis thaliana T1 plants; for Grade 0 (classification and statistics of the grade of pesticide damage; number of plants) / Grade 1 (classification and statistics of the grade of pesticide damage; number of plants) / Grade 2 (classification and statistics of the grade of pesticide damage; number of plants) / Grade 3 (classification and statistics of the grade of pesticide damage; number of plants): 16 plants
Method in brief: (§1)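 Damage graded 0–3 from the proportion of bleached leaf area 7 days after spraying. Plants were glufosinate-selected T1 lines, 18 days after sowing, plus vector and wild-type controls. Rates: mesotrione 52.5–420, isoxaflutole 35–280, topramezone 25–200 g ai/ha, with water (0×).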

[2] = system: Arabidopsis thaliana T1 plants; experiment: Topramezone tolerance of transgenic Arabidopsis thaliana T1 plants (spray, bleached leaf area grade, damage score); conditions: 7 DAT, Table 4; for Classification and statistics of the grade of pesticide damage: Grade 0 / Classification and statistics of the grade of pesticide damage: Grade 1 / Classification and statistics of the grade of pesticide damage: Grade 2 / Classification and statistics of the grade of pesticide damage: Grade 3: number of plants; for Scores: pesticide damage score 0-100
Method in brief: as §1

[3] = system: Arabidopsis thaliana T1 plants; experiment: Isoxaflutole tolerance of transgenic Arabidopsis thaliana T1 plants (spray, bleached leaf area grade, damage score); set-up: Scores (pesticide damage): scale not given here; conditions: spray, Arabidopsis thaliana T1 plants; for Classification and statistics of the grade of pesticide damage: Grade 0 (number of plants) / Classification and statistics of the grade of pesticide damage: Grade 1 (number of plants) / Classification and statistics of the grade of pesticide damage: Grade 2 (number of plants) / Classification and statistics of the grade of pesticide damage: Grade 3 (number of plants): 16 plants
Method in brief: as §1

[4] = isoxaflutole 35 g ai/ha (0.5x field concentration)
[5] = isoxaflutole 70 g ai/ha (1x field concentration)

Row | Molecule | Resistance evaluation ([1]; mesotrione 52.5 g ai/ha) | Scores ([1]; mesotrione 52.5 g ai/ha) | Grade 0 (classification and statistics of the grade of pesticide damage; number of plants) ([1]; mesotrione 52.5 g ai/ha) | Grade 1 (classification and statistics of the grade of pesticide damage; number of plants) ([1]; mesotrione 52.5 g ai/ha) | Grade 2 (classification and statistics of the grade of pesticide damage; number of plants) ([1]; mesotrione 52.5 g ai/ha) | Grade 3 (classification and statistics of the grade of pesticide damage; number of plants) ([1]; mesotrione 52.5 g ai/ha) | Resistance evaluation ([1]; mesotrione 105 g ai/ha) | Scores ([1]; mesotrione 105 g ai/ha) | Grade 0 (classification and statistics of the grade of pesticide damage; number of plants) ([1]; mesotrione 105 g ai/ha) | Grade 1 (classification and statistics of the grade of pesticide damage; number of plants) ([1]; mesotrione 105 g ai/ha) | Grade 2 (classification and statistics of the grade of pesticide damage; number of plants) ([1]; mesotrione 105 g ai/ha) | Grade 3 (classification and statistics of the grade of pesticide damage; number of plants) ([1]; mesotrione 105 g ai/ha) | Classification and statistics of the grade of pesticide damage: Grade 0 ([2]; topramezone 25 g ai/ha (1×)) | Classification and statistics of the grade of pesticide damage: Grade 1 ([2]; topramezone 25 g ai/ha (1×)) | Classification and statistics of the grade of pesticide damage: Grade 2 ([2]; topramezone 25 g ai/ha (1×)) | Classification and statistics of the grade of pesticide damage: Grade 3 ([2]; topramezone 25 g ai/ha (1×)) | Classification and statistics of the grade of pesticide damage: Grade 0 ([2]; topramezone 100 g ai/ha (4×)) | Classification and statistics of the grade of pesticide damage: Grade 1 ([2]; topramezone 100 g ai/ha (4×)) | Classification and statistics of the grade of pesticide damage: Grade 2 ([2]; topramezone 100 g ai/ha (4×)) | Classification and statistics of the grade of pesticide damage: Grade 3 ([2]; topramezone 100 g ai/ha (4×)) | also measured
1 | MsHPPD-02: nucleotide sequence encoding wild-type Medicago sativa HPPD; vector DBN11734 (nucleic acid, MsHPPD-02 Nucleotide Sequence, vector DBN11734) DNA: ATGGCTATTGAAACCGAAACACAAACTCAGACTGGATTTAAACTGGTAGGGTTCAAGAATTTCGTTAGGGCTAATCCCAAGTCTGATCGTTTTAAGGTCAAGAGGTTCCACCACGTGGAGTTCTGGTGCACTGATGCAACCAACACGGCGCGGCGTTTTTCACATGGTCTTGGAATGCCTATTGTTGCAAAATCCGACCTCTCCACGGGGAACCAAACACACGCCTCTTACCTGCTACGGAGTGGTGACTTGAACTTCCTCTTCAGCGCCGCCTACTCACCCTCCATATCGTTGTCTTCACCATCCTCGACCGCAGCAATTCCTACATTTTCTGCGAGCAACTGCTTCTCTTTCTCTGCCAGTCATGGCCTCGCCGTCAGAGCAGTGGCCGTTGAAGTAGAGGATGCTGAACTTGCTTTTACAACTTCAGTGAATAATGGAGCAATACCGAGCAGTCCGCCGGTCATACTTGAGAATCATGTGAAGCTAGCGGAGGTGAGGCTTTATGGGGACGTCGTTTTAAGATATGTCAGCTACAATGATCCAAACCCCAATCAAAATCCAAATTTGTTGTTCCTTCCTGGCTTCGAGCGTGTTAGCGATGAATCTTCAAACTCTTCACTGGATTTTGGAATCAGACGGTTGGATCATGCTGTTGGAAATGTTCCTGAACTCTCGAGCGCTGTGAAATATGTGAAGGACTTCACCGGTTTTCATGAATTTGCTGAGTTTACTGCAGAAGATGTGGGTACATCAGAGAGTGGCTTGAATTCCGTGGTGCTCGCCAACAACGAGGAGACTGTACTCTTACCAATGAATGAGCCAGTCTATGGCACCAAGCGTAAATCTCAAATTGAGACATATTTGGAGCACAATGAAGGAGCTGGACTTCAGCATCTCGCGCTGAAGAGTGAGGACATCTTCCGCACCCTACGGGAGATGAGGAAAAGAAGTGGTGTTGGTGGGTTTGAATTCATGCCATCACCTCCTGTCACCTACTACAGGAACCTGAAGAACAGAGTTGGTGATGTACTTTCGGACGAGCAGATAAAGGAATGTGAAGAGTTGGGGATTTTGGTTGATAGAGATGATCAAGGAACACTCCTGCAGATTTTTACAAAACCAATTGGCGACCGCCCCACTATCTTCATAGAGATCATCCAGAGGGTGGGGTGCATGCTCAAAGACGAGGAAGGGAAGGAGTACCAGAAGGGCGGCTGTGGTGGTTTTGGGAAAGGAAACTTTTCTGAGTTATTCAAATCAATTGAAGAGTATGAGAAGACGCTTGAAACGCGTCGCACTGCTTGA | Non-resistant | 100 | 0 | 0 | 0 | 16 | Non-resistant | 100 | 0 | 0 | 0 | 16 | 0 | 0 | 0 | 16 | 0 | 0 | 0 | 16 | Scores ([2]; topramezone 25 g ai/ha (1×)): 100; Scores ([2]; topramezone 100 g ai/ha (4×)): 100; Resistance evaluation ([2]; topramezone 25 g ai/ha (1×)): non-resistant (non-resistant plants (scores 68-100)); Resistance evaluation ([2]; topramezone 100 g ai/ha (4×)): non-resistant (non-resistant plants (scores 68-100)); Resistance evaluation [3, 4]: Non-resistant; Scores (pesticide damage) [3, 4]: 100; Classification and statistics of the grade of pesticide damage: Grade 0 (number of plants) [3, 4]: 0; Classification and statistics of the grade of pesticide damage: Grade 1 (number of plants) [3, 4]: 0; Classification and statistics of the grade of pesticide damage: Grade 2 (number of plants) [3, 4]: 0; Classification and statistics of the grade of pesticide damage: Grade 3 (number of plants) [3, 4]: 16; Resistance evaluation [3, 5]: Non-resistant; Scores (pesticide damage) [3, 5]: 100; Classification and statistics of the grade of pesticide damage: Grade 0 (number of plants) [3, 5]: 0; Classification and statistics of the grade of pesticide damage: Grade 1 (number of plants) [3, 5]: 0; Classification and statistics of the grade of pesticide damage: Grade 2 (number of plants) [3, 5]: 0; Classification and statistics of the grade of pesticide damage: Grade 3 (number of plants) [3, 5]: 16
2 | MsHPPDm-F372A-F383W-02: nucleotide sequence encoding Medicago sativa HPPD with F372A+F383W; vector DBN11737 (nucleic acid, MsHPPDm-F372A-F383W-02 Nucleotide Sequence, vector DBN11737) DNA: ATGGCTATTGAAACCGAAACACAAACTCAGACTGGATTTAAACTGGTAGGGTTCAAGAATTTCGTTAGGGCTAATCCCAAGTCTGATCGTTTTAAGGTCAAGAGGTTCCACCACGTGGAGTTCTGGTGCACTGATGCAACCAACACGGCGCGGCGTTTTTCACATGGTCTTGGAATGCCTATTGTTGCAAAATCCGACCTCTCCACGGGGAACCAAACACACGCCTCTTACCTGCTACGGAGTGGTGACTTGAACTTCCTCTTCAGCGCCGCCTACTCACCCTCCATATCGTTGTCTTCACCATCCTCGACCGCAGCAATTCCTACATTTTCTGCGAGCAACTGCTTCTCTTTCTCTGCCAGTCATGGCCTCGCCGTCAGAGCAGTGGCCGTTGAAGTAGAGGATGCTGAACTTGCTTTTACAACTTCAGTGAATAATGGAGCAATACCGAGCAGTCCGCCGGTCATACTTGAGAATCATGTGAAGCTAGCGGAGGTGAGGCTTTATGGGGACGTCGTTTTAAGATATGTCAGCTACAATGATCCAAACCCCAATCAAAATCCAAATTTGTTGTTCCTTCCTGGCTTCGAGCGTGTTAGCGATGAATCTTCAAACTCTTCACTGGATTTTGGAATCAGACGGTTGGATCATGCTGTTGGAAATGTTCCTGAACTCTCGAGCGCTGTGAAATATGTGAAGGACTTCACCGGTTTTCATGAATTTGCTGAGTTTACTGCAGAAGATGTGGGTACATCAGAGAGTGGCTTGAATTCCGTGGTGCTCGCCAACAACGAGGAGACTGTACTCTTACCAATGAATGAGCCAGTCTATGGCACCAAGCGTAAATCTCAAATTGAGACATATTTGGAGCACAATGAAGGAGCTGGACTTCAGCATCTCGCGCTGAAGAGTGAGGACATCTTCCGCACCCTACGGGAGATGAGGAAAAGAAGTGGTGTTGGTGGGTTTGAATTCATGCCATCACCTCCTGTCACCTACTACAGGAACCTGAAGAACAGAGTTGGTGATGTACTTTCGGACGAGCAGATAAAGGAATGTGAAGAGTTGGGGATTTTGGTTGATAGAGATGATCAAGGAACACTCCTGCAGATTGCCACAAAACCAATTGGCGACCGCCCCACTATCTGGATAGAGATCATCCAGAGGGTGGGGTGCATGCTCAAAGACGAGGAAGGGAAGGAGTACCAGAAGGGCGGCTGTGGTGGTTTTGGGAAAGGAAACTTTTCTGAGTTATTCAAATCAATTGAAGAGTATGAGAAGACGCTTGAAACGCGTCGCACTGCTTGA | Moderately | 33 | 3 | 10 | 3 | 0 | Non-resistant | 79 | 0 | 0 | 10 | 6 | 6 | 9 | 1 | 0 | 0 | 8 | 6 | 2 | Scores ([2]; topramezone 25 g ai/ha (1×)): 23; Scores ([2]; topramezone 100 g ai/ha (4×)): 54; Resistance evaluation ([2]; topramezone 25 g ai/ha (1×)): moderately; Resistance evaluation ([2]; topramezone 100 g ai/ha (4×)): poorly; Resistance evaluation [3, 4]: Moderately; Scores (pesticide damage) [3, 4]: 27; Classification and statistics of the grade of pesticide damage: Grade 0 (number of plants) [3, 4]: 5; Classification and statistics of the grade of pesticide damage: Grade 1 (number of plants) [3, 4]: 9; Classification and statistics of the grade of pesticide damage: Grade 2 (number of plants) [3, 4]: 2; Classification and statistics of the grade of pesticide damage: Grade 3 (number of plants) [3, 4]: 0; Resistance evaluation [3, 5]: Moderately; Scores (pesticide damage) [3, 5]: 33; Classification and statistics of the grade of pesticide damage: Grade 0 (number of plants) [3, 5]: 2; Classification and statistics of the grade of pesticide damage: Grade 1 (number of plants) [3, 5]: 12; Classification and statistics of the grade of pesticide damage: Grade 2 (number of plants) [3, 5]: 2; Classification and statistics of the grade of pesticide damage: Grade 3 (number of plants) [3, 5]: 0
